Data as given in patent US11499162B2, “Plants having increased tolerance to herbicides” (BASF SE, priority 2016, dated 2022).

Type: biochemical
Conditions: pH 7.2
Procedure, shortened: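 TriA variants, N-His-tagged, were expressed in E. coli BL21(DE3) Gold with groEL/groES chaperones and purified by Ni-IDA affinity. Enzyme in 25 mM sodium phosphate pH 7.2 was incubated with azine substrates at 1 nM to 10 nM, 30° C. Products were identified by UPLC-HR-MS.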

Row | Molecule | Degradation in % of 6-cyclopentyl-N4-(2,3,4,5,6-pentafluorophenyl)-1,3,5-triazine-2,4-diamine [%] | Degradation in % of Melamine [%]
1 | I217A: mutated TriA variant of SEQ ID NO: 2 (protein, Pseudomonas) MQTLSIQHGTLVTMDQYRRVLGDSWVHVQDGRIVALGVHAESVPPPADRVIDARGKVVLPGFINAHTHVNQILLRGGPSHGRQLYDWLFNVLYPGQKAMRPEDVAVAVRLYCAEAVRSGITTINDNADSAIYPGNIEAAMAVYGEVGVRVVYARMFFDRMDGRIQGYVDALKARSPQVELCSIMEETAVAKDRITALSDQYHGTAGGRISVWPAPAATPAVTVEGMRWAQAFARDRAVMWTLHMAESDHDERLHWMSPAEYMECYGLLDERLQVAHCVYFDRKDVRLLHRHNVKVASQVVSNAYLGSGVAPVPEMVERGMAVGIGTDDGNCNDSVNMIGDMKFMAHIHRAVHRDADVLTPEKILEMATIDGARSLGMDHEIGSIETGKRADLILLDLRHPQTTPHHHLAATIVFQAYGNEVDTVLIDGNVVMENRRLSFLPPERELAFLEEAQSRATAILQRANMVANPAWRSL | 4 | 100
2 | I217S: mutated TriA variant of SEQ ID NO: 2 (protein, Pseudomonas) MQTLSIQHGTLVTMDQYRRVLGDSWVHVQDGRIVALGVHAESVPPPADRVIDARGKVVLPGFINAHTHVNQILLRGGPSHGRQLYDWLFNVLYPGQKAMRPEDVAVAVRLYCAEAVRSGITTINDNADSAIYPGNIEAAMAVYGEVGVRVVYARMFFDRMDGRIQGYVDALKARSPQVELCSIMEETAVAKDRITALSDQYHGTAGGRISVWPAPASTPAVTVEGMRWAQAFARDRAVMWTLHMAESDHDERLHWMSPAEYMECYGLLDERLQVAHCVYFDRKDVRLLHRHNVKVASQVVSNAYLGSGVAPVPEMVERGMAVGIGTDDGNCNDSVNMIGDMKFMAHIHRAVHRDADVLTPEKILEMATIDGARSLGMDHEIGSIETGKRADLILLDLRHPQTTPHHHLAATIVFQAYGNEVDTVLIDGNVVMENRRLSFLPPERELAFLEEAQSRATAILQRANMVANPAWRSL | 3 | 100
3 | I217T: mutated TriA variant of SEQ ID NO: 2 (protein, Pseudomonas) MQTLSIQHGTLVTMDQYRRVLGDSWVHVQDGRIVALGVHAESVPPPADRVIDARGKVVLPGFINAHTHVNQILLRGGPSHGRQLYDWLFNVLYPGQKAMRPEDVAVAVRLYCAEAVRSGITTINDNADSAIYPGNIEAAMAVYGEVGVRVVYARMFFDRMDGRIQGYVDALKARSPQVELCSIMEETAVAKDRITALSDQYHGTAGGRISVWPAPATTPAVTVEGMRWAQAFARDRAVMWTLHMAESDHDERLHWMSPAEYMECYGLLDERLQVAHCVYFDRKDVRLLHRHNVKVASQVVSNAYLGSGVAPVPEMVERGMAVGIGTDDGNCNDSVNMIGDMKFMAHIHRAVHRDADVLTPEKILEMATIDGARSLGMDHEIGSIETGKRADLILLDLRHPQTTPHHHLAATIVFQAYGNEVDTVLIDGNVVMENRRLSFLPPERELAFLEEAQSRATAILQRANMVANPAWRSL | 3 | 100
4 | P219GH249N: mutated TriA variant of SEQ ID NO: 2 (protein, Pseudomonas) MQTLSIQHGTLVTMDQYRRVLGDSWVHVQDGRIVALGVHAESVPPPADRVIDARGKVVLPGFINAHTHVNQILLRGGPSHGRQLYDWLFNVLYPGQKAMRPEDVAVAVRLYCAEAVRSGITTINDNADSAIYPGNIEAAMAVYGEVGVRVVYARMFFDRMDGRIQGYVDALKARSPQVELCSIMEETAVAKDRITALSDQYHGTAGGRISVWPAPAITGAVTVEGMRWAQAFARDRAVMWTLHMAESDNDERLHWMSPAEYMECYGLLDERLQVAHCVYFDRKDVRLLHRHNVKVASQVVSNAYLGSGVAPVPEMVERGMAVGIGTDDGNCNDSVNMIGDMKFMAHIHRAVHRDADVLTPEKILEMATIDGARSLGMDHEIGSIETGKRADLILLDLRHPQTTPHHHLAATIVFQAYGNEVDTVLIDGNVVMENRRLSFLPPERELAFLEEAQSRATAILQRANMVANPAWRSL | 0 | 2
5 | I217VP219GH249N: mutated TriA variant of SEQ ID NO: 2 (protein, Pseudomonas) MQTLSIQHGTLVTMDQYRRVLGDSWVHVQDGRIVALGVHAESVPPPADRVIDARGKVVLPGFINAHTHVNQILLRGGPSHGRQLYDWLFNVLYPGQKAMRPEDVAVAVRLYCAEAVRSGITTINDNADSAIYPGNIEAAMAVYGEVGVRVVYARMFFDRMDGRIQGYVDALKARSPQVELCSIMEETAVAKDRITALSDQYHGTAGGRISVWPAPAVTGAVTVEGMRWAQAFARDRAVMWTLHMAESDNDERLHWMSPAEYMECYGLLDERLQVAHCVYFDRKDVRLLHRHNVKVASQVVSNAYLGSGVAPVPEMVERGMAVGIGTDDGNCNDSVNMIGDMKFMAHIHRAVHRDADVLTPEKILEMATIDGARSLGMDHEIGSIETGKRADLILLDLRHPQTTPHHHLAATIVFQAYGNEVDTVLIDGNVVMENRRLSFLPPERELAFLEEAQSRATAILQRANMVANPAWRSL | 0 | 8
6 | A220T: mutated TriA variant of SEQ ID NO: 2 (protein, Pseudomonas) MQTLSIQHGTLVTMDQYRRVLGDSWVHVQDGRIVALGVHAESVPPPADRVIDARGKVVLPGFINAHTHVNQILLRGGPSHGRQLYDWLFNVLYPGQKAMRPEDVAVAVRLYCAEAVRSGITTINDNADSAIYPGNIEAAMAVYGEVGVRVVYARMFFDRMDGRIQGYVDALKARSPQVELCSIMEETAVAKDRITALSDQYHGTAGGRISVWPAPAITPTVTVEGMRWAQAFARDRAVMWTLHMAESDHDERLHWMSPAEYMECYGLLDERLQVAHCVYFDRKDVRLLHRHNVKVASQVVSNAYLGSGVAPVPEMVERGMAVGIGTDDGNCNDSVNMIGDMKFMAHIHRAVHRDADVLTPEKILEMATIDGARSLGMDHEIGSIETGKRADLILLDLRHPQTTPHHHLAATIVFQAYGNEVDTVLIDGNVVMENRRLSFLPPERELAFLEEAQSRATAILQRANMVANPAWRSL | 1 | 6
7 | A220S: mutated TriA variant of SEQ ID NO: 2 (protein, Pseudomonas) MQTLSIQHGTLVTMDQYRRVLGDSWVHVQDGRIVALGVHAESVPPPADRVIDARGKVVLPGFINAHTHVNQILLRGGPSHGRQLYDWLFNVLYPGQKAMRPEDVAVAVRLYCAEAVRSGITTINDNADSAIYPGNIEAAMAVYGEVGVRVVYARMFFDRMDGRIQGYVDALKARSPQVELCSIMEETAVAKDRITALSDQYHGTAGGRISVWPAPAITPSVTVEGMRWAQAFARDRAVMWTLHMAESDHDERLHWMSPAEYMECYGLLDERLQVAHCVYFDRKDVRLLHRHNVKVASQVVSNAYLGSGVAPVPEMVERGMAVGIGTDDGNCNDSVNMIGDMKFMAHIHRAVHRDADVLTPEKILEMATIDGARSLGMDHEIGSIETGKRADLILLDLRHPQTTPHHHLAATIVFQAYGNEVDTVLIDGNVVMENRRLSFLPPERELAFLEEAQSRATAILQRANMVANPAWRSL | 3 | 0
8 | N70C: mutated TriA variant of SEQ ID NO: 2 (protein, Pseudomonas) MQTLSIQHGTLVTMDQYRRVLGDSWVHVQDGRIVALGVHAESVPPPADRVIDARGKVVLPGFINAHTHVCQILLRGGPSHGRQLYDWLFNVLYPGQKAMRPEDVAVAVRLYCAEAVRSGITTINDNADSAIYPGNIEAAMAVYGEVGVRVVYARMFFDRMDGRIQGYVDALKARSPQVELCSIMEETAVAKDRITALSDQYHGTAGGRISVWPAPAITPAVTVEGMRWAQAFARDRAVMWTLHMAESDHDERLHWMSPAEYMECYGLLDERLQVAHCVYFDRKDVRLLHRHNVKVASQVVSNAYLGSGVAPVPEMVERGMAVGIGTDDGNCNDSVNMIGDMKFMAHIHRAVHRDADVLTPEKILEMATIDGARSLGMDHEIGSIETGKRADLILLDLRHPQTTPHHHLAATIVFQAYGNEVDTVLIDGNVVMENRRLSFLPPERELAFLEEAQSRATAILQRANMVANPAWRSL | 0 | 0
9 | A220G: mutated TriA variant of SEQ ID NO: 2 (protein, Pseudomonas) MQTLSIQHGTLVTMDQYRRVLGDSWVHVQDGRIVALGVHAESVPPPADRVIDARGKVVLPGFINAHTHVNQILLRGGPSHGRQLYDWLFNVLYPGQKAMRPEDVAVAVRLYCAEAVRSGITTINDNADSAIYPGNIEAAMAVYGEVGVRVVYARMFFDRMDGRIQGYVDALKARSPQVELCSIMEETAVAKDRITALSDQYHGTAGGRISVWPAPAITPGVTVEGMRWAQAFARDRAVMWTLHMAESDHDERLHWMSPAEYMECYGLLDERLQVAHCVYFDRKDVRLLHRHNVKVASQVVSNAYLGSGVAPVPEMVERGMAVGIGTDDGNCNDSVNMIGDMKFMAHIHRAVHRDADVLTPEKILEMATIDGARSLGMDHEIGSIETGKRADLILLDLRHPQTTPHHHLAATIVFQAYGNEVDTVLIDGNVVMENRRLSFLPPERELAFLEEAQSRATAILQRANMVANPAWRSL | 0 | 0
10 | F157AA220G: mutated TriA variant of SEQ ID NO: 2 (protein, Pseudomonas) MQTLSIQHGTLVTMDQYRRVLGDSWVHVQDGRIVALGVHAESVPPPADRVIDARGKVVLPGFINAHTHVNQILLRGGPSHGRQLYDWLFNVLYPGQKAMRPEDVAVAVRLYCAEAVRSGITTINDNADSAIYPGNIEAAMAVYGEVGVRVVYARMFADRMDGRIQGYVDALKARSPQVELCSIMEETAVAKDRITALSDQYHGTAGGRISVWPAPAITPGVTVEGMRWAQAFARDRAVMWTLHMAESDHDERLHWMSPAEYMECYGLLDERLQVAHCVYFDRKDVRLLHRHNVKVASQVVSNAYLGSGVAPVPEMVERGMAVGIGTDDGNCNDSVNMIGDMKFMAHIHRAVHRDADVLTPEKILEMATIDGARSLGMDHEIGSIETGKRADLILLDLRHPQTTPHHHLAATIVFQAYGNEVDTVLIDGNVVMENRRLSFLPPERELAFLEEAQSRATAILQRANMVANPAWRSL | 0 | 0
